Measurements: the supplement of paper PMC10899765

Columns and labels:
Conditions in all cases: 20 nM; 72 h
[1] = tested on: MCF10A; test: percent viability (nuclei count relative to siNT); higher = more viable cells
Experimental: (§1)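 After 72 h, cells were fixed and stained with Hoechst and anti-fibrillarin, and nucleoli per nucleus were counted with CellProfiler. Values are plate-adjusted percent effect for the one-nucleolus and 5+ nucleoli phenotypes, normalised to siNT (0%) and to the positive controls siNOL11 or siKIF11 (100%), as the mean of biological triplicates. Percent viability is the nuclei count relative to siNT.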

[2] = tested on: MCF10A; test: 5+ nucleoli phenotype percent effect (relative to siNT 0% and siKIF11 100%); higher = more cells with five or more nucleoli
Experimental: as §1

[3] = tested on: MCF10A; test: one-nucleolus phenotype percent effect (relative to siNT 0% and siNOL11 100%); higher = more cells with one nucleolus (ribosome biogenesis inhibition)
Experimental: as §1

UGUGCAAAUCCAUGCAAAACUGA [hsa-miR-19b-3p]
percent viability [1]: 82.4% | 5+ nucleoli phenotype percent effect [2]: -2.64% | one-nucleolus phenotype percent effect [3]: 4.13%

UGUGCAAAUCUAUGCAAAACUGA [hsa-miR-19a-3p]
percent viability [1]: 141% | 5+ nucleoli phenotype percent effect [2]: 34.4% | one-nucleolus phenotype percent effect [3]: -14.6%

UGUGCAGCAGGCCAACCGAGA [hsa-miR-3944-5p]
percent viability [1]: 69% | 5+ nucleoli phenotype percent effect [2]: 4.63% | one-nucleolus phenotype percent effect [3]: -7.88%

UGUGCGCAGGGAGACCUCUCCC [hsa-miR-933]
percent viability [1]: 78.3% | 5+ nucleoli phenotype percent effect [2]: -8.45% | one-nucleolus phenotype percent effect [3]: 4.65%

UGUGCUUGCUCGUCCCGCCCGCA [hsa-miR-636]
percent viability [1]: 111% | 5+ nucleoli phenotype percent effect [2]: -6.7% | one-nucleolus phenotype percent effect [3]: 5.25%

UGUGGAAGGUAGACGGCCAGAGA [hsa-miR-3190-3p]
percent viability [1]: 19.8% | 5+ nucleoli phenotype percent effect [2]: -44% | one-nucleolus phenotype percent effect [3]: 42.7%

UGUGGACAGUGAGGUAGAGGGAGU [hsa-miR-3138]
percent viability [1]: 47.9% | 5+ nucleoli phenotype percent effect [2]: 2.7% | one-nucleolus phenotype percent effect [3]: -2.72%

UGUGGGACUGCAAAUGGGAG [hsa-miR-4648]
percent viability [1]: 41.5% | 5+ nucleoli phenotype percent effect [2]: -30.5% | one-nucleolus phenotype percent effect [3]: 19.7%

UGUGGGAUCUGGAGGCAUCUGG [hsa-miR-4654]
percent viability [1]: 38.8% | 5+ nucleoli phenotype percent effect [2]: -29.4% | one-nucleolus phenotype percent effect [3]: 6.3%

UGUGGGUGGGAAGGACUGGAUU [hsa-miR-6748-5p]
percent viability [1]: 22.6% | 5+ nucleoli phenotype percent effect [2]: -25.6% | one-nucleolus phenotype percent effect [3]: 30.1%

UGUGGGUUCUGGGUUGGGGUGA [hsa-miR-6793-5p]
percent viability [1]: 14.3% | 5+ nucleoli phenotype percent effect [2]: -24.1% | one-nucleolus phenotype percent effect [3]: 30.2%

UGUGGUAGAUAUAUGCACGAU [hsa-miR-4536-5p]
percent viability [1]: 25.9% | 5+ nucleoli phenotype percent effect [2]: -25.4% | one-nucleolus phenotype percent effect [3]: 26.2%

UGUGUACACACGUGCCAGGCGCU [hsa-miR-3177-5p]
percent viability [1]: 131% | 5+ nucleoli phenotype percent effect [2]: 61.9% | one-nucleolus phenotype percent effect [3]: -22.2%

UGUGUCACUCGAUGACCACUGU [hsa-miR-597]
percent viability [1]: 47.8% | 5+ nucleoli phenotype percent effect [2]: -3.83% | one-nucleolus phenotype percent effect [3]: 13.9%

UGUGUCCCAUUAUUGGUGAUU [hsa-miR-3657]
percent viability [1]: 46.6% | 5+ nucleoli phenotype percent effect [2]: -31.6% | one-nucleolus phenotype percent effect [3]: 32.2%

UGUGUCCGGGAAGUGGAGGAGG [hsa-miR-4669]
percent viability [1]: 74.6% | 5+ nucleoli phenotype percent effect [2]: -24.1% | one-nucleolus phenotype percent effect [3]: 2.82%

UGUGUGUGUAGAGGAAGAAGGGA [hsa-miR-6867-5p]
percent viability [1]: 13.1% | 5+ nucleoli phenotype percent effect [2]: -22.4% | one-nucleolus phenotype percent effect [3]: 64.8%

UGUGUUAGAAUAGGGGCAAUAA [hsa-miR-3152-3p]
percent viability [1]: 35.1% | 5+ nucleoli phenotype percent effect [2]: -11.7% | one-nucleolus phenotype percent effect [3]: 4.92%

UGUUCAUGUAGAUGUUUAAGC [hsa-miR-1206]
percent viability [1]: 95.8% | 5+ nucleoli phenotype percent effect [2]: 42.5% | one-nucleolus phenotype percent effect [3]: -22.5%

UGUUCAUUGGAACCCUGCGCAG [hsa-miR-6853-3p]
percent viability [1]: 79.8% | 5+ nucleoli phenotype percent effect [2]: 29% | one-nucleolus phenotype percent effect [3]: -28.7%

UGUUCCUCUGUCUCCCAGAC [hsa-miR-4326]
percent viability [1]: 32.4% | 5+ nucleoli phenotype percent effect [2]: -25.5% | one-nucleolus phenotype percent effect [3]: 18.8%

UGUUCUCUUUGCCAAGGACAG [hsa-miR-2117]
percent viability [1]: 56.1% | 5+ nucleoli phenotype percent effect [2]: 4.15% | one-nucleolus phenotype percent effect [3]: -0.405%

UGUUGCAAGUCGGUGGAGACGU [hsa-miR-4684-3p]
percent viability [1]: 43.9% | 5+ nucleoli phenotype percent effect [2]: -9.23% | one-nucleolus phenotype percent effect [3]: 4.39%

UGUUGGGAUUCAGCAGGACCAU [hsa-miR-4425]
percent viability [1]: 27.3% | 5+ nucleoli phenotype percent effect [2]: -29% | one-nucleolus phenotype percent effect [3]: 19.2%

UGUUGUACUUUUUUUUUUGUUC [hsa-miR-3613-5p]
percent viability [1]: 114% | 5+ nucleoli phenotype percent effect [2]: 4.98% | one-nucleolus phenotype percent effect [3]: -10.4%

UGUUGUCAUGUUUUUUCCCUAG [hsa-miR-6755-3p]
percent viability [1]: 26% | 5+ nucleoli phenotype percent effect [2]: 34.6% | one-nucleolus phenotype percent effect [3]: -6.42%

UGUUUCGGGGCUCAUGGCCUGUG [hsa-miR-5705]
percent viability [1]: 136% | 5+ nucleoli phenotype percent effect [2]: 33.2% | one-nucleolus phenotype percent effect [3]: -18.8%

UGUUUGUUGUAAGGAUCGUUGU [hsa-miR-8068]
percent viability [1]: 34.1% | 5+ nucleoli phenotype percent effect [2]: -15.7% | one-nucleolus phenotype percent effect [3]: 7.78%

UGUUUUGAUAACAGUAAUGU [hsa-miR-2052]
percent viability [1]: 144% | 5+ nucleoli phenotype percent effect [2]: 5.44% | one-nucleolus phenotype percent effect [3]: 0.685%

UUAACUCCUUUCACACCCAUGG [hsa-miR-4764-3p]
percent viability [1]: 91.4% | 5+ nucleoli phenotype percent effect [2]: 15.3% | one-nucleolus phenotype percent effect [3]: -18%

UUAAGACUUGCAGUGAUGUUU [hsa-miR-499a-5p]
percent viability [1]: 102% | 5+ nucleoli phenotype percent effect [2]: -1.56% | one-nucleolus phenotype percent effect [3]: 5.05%

UUAAUAUCGGACAACCAUUGU [hsa-miR-889]
percent viability [1]: 108% | 5+ nucleoli phenotype percent effect [2]: 0.0778% | one-nucleolus phenotype percent effect [3]: -0.642%

UUAAUGCUAAUCGUGAUAGGGGU [hsa-miR-155-5p]
percent viability [1]: 38.2% | 5+ nucleoli phenotype percent effect [2]: -38.5% | one-nucleolus phenotype percent effect [3]: 8.74%

UUAAUUUUUUGUUUCGGUCACU [hsa-miR-4775]
percent viability [1]: 88.3% | 5+ nucleoli phenotype percent effect [2]: 21.1% | one-nucleolus phenotype percent effect [3]: -18.6%

UUACACACAACUGAGGAUCAUA [hsa-miR-3941]
percent viability [1]: 16.8% | 5+ nucleoli phenotype percent effect [2]: 0.22% | one-nucleolus phenotype percent effect [3]: 7.76%

UUACACAGCUGGACAGAGGCA [hsa-miR-4672]
percent viability [1]: 17.6% | 5+ nucleoli phenotype percent effect [2]: -34% | one-nucleolus phenotype percent effect [3]: 38.5%

UUACAGGCGUGAACCACCGCG [hsa-miR-5095]
percent viability [1]: 12.8% | 5+ nucleoli phenotype percent effect [2]: -7.36% | one-nucleolus phenotype percent effect [3]: 15.8%

UUACAGUUGUUCAACCAGUUACU [hsa-miR-582-5p]
percent viability [1]: 165% | 5+ nucleoli phenotype percent effect [2]: 12.8% | one-nucleolus phenotype percent effect [3]: -29.2%

UUACGGACCAGCUAAGGGAGGC [hsa-miR-4788]
percent viability [1]: 43.7% | 5+ nucleoli phenotype percent effect [2]: 9.13% | one-nucleolus phenotype percent effect [3]: -0.639%

UUAGAACGUUUUAGGGUCAAAU [hsa-miR-5687]
percent viability [1]: 50.5% | 5+ nucleoli phenotype percent effect [2]: 16.2% | one-nucleolus phenotype percent effect [3]: -12.4%

UUAGACCUAGUACACGUCCUU [hsa-miR-3684]
percent viability [1]: 85.2% | 5+ nucleoli phenotype percent effect [2]: 16.1% | one-nucleolus phenotype percent effect [3]: -19.2%

UUAGAGGCUGGAAUAGAGAUUCU [hsa-miR-6866-5p]
percent viability [1]: 14.1% | 5+ nucleoli phenotype percent effect [2]: -0.659% | one-nucleolus phenotype percent effect [3]: 9.98%

UUAGCCAAUUGUCCAUCUUUAG [hsa-miR-4662a-5p]
percent viability [1]: 33.5% | 5+ nucleoli phenotype percent effect [2]: 1.03% | one-nucleolus phenotype percent effect [3]: 9.07%

UUAGCGGUGGACCGCCCUGCG [hsa-miR-4321]
percent viability [1]: 47% | 5+ nucleoli phenotype percent effect [2]: 3.56% | one-nucleolus phenotype percent effect [3]: -12.2%

UUAGCUUAAGGAGUACCAGAUC [hsa-miR-5579-3p]
percent viability [1]: 65.6% | 5+ nucleoli phenotype percent effect [2]: 7.97% | one-nucleolus phenotype percent effect [3]: -7.52%
